This is an account of results in FireProtDB (doi:10.1111/j.1432-1033.1994.tb18664.x).

B1: Ribonuclease HI, P0A7Y4 (parent)
chain: MLKQVEIFTDGSCLGNPGPGGYGAILRYRGREKTFSAGYTRTTNNRMELMAAIVALEALKEHCEVILSTDSQYVRQGITQWIHNWKKRGWKTADKKPVKNVDLWQRLDAALGQHQIKWEWVKGHAGHPENERCDELARAAAMNPTLEDTGYQVEV

Variants of B1 are the subject of the series. Particulars: Escherichia coli (strain K12), Thermal, CD, NaCl 0.1 M, reversible: yes, structure 2RN2, whole UniProt chain shown.
[1] abbreviates: pH 5.5, 53.1 °C, Sodium acetate 20 mM.

For the variant MLKQVEIFTDGSCLGNPGPGGYGAILRYRGREKTFSAGYTRTTNNRMELMAAIVALEALKEHCEVILSTDSQYVRQGITQWIHNWKKRGWKTADKKPVKNVDLWQRLDAALGQHQIKWEWVKGHAGHPENERCEELARAAAMNPTLEDTGYQVEV [D134E], the “ddG of mutation (higher = less stable)” value was -0.72 kcal/mol (pH 3, 50 °C, glycine-HCl 10 mM) and -0.86 kcal/mol under setting [1]. The Tm came out at 52.4 °C (pH 3, glycine-HCl 10 mM) and 56.2 °C (pH 5.5, Sodium acetate 20 mM). In addition, the “change of melting temperature, mutant - wild type (higher = more stable)” value (“change of melting temperature, mutant” below) (pH 3, glycine-HCl 10 mM) is 2.4 °C and the “change of melting temperature, mutant” value (pH 5.5, Sodium acetate 20 mM) amounted to 3.1 °C. In addition, the “unfolding enthalpy (van 't Hoff)” value came out at 108 kcal/mol (pH 3, glycine-HCl 10 mM) and 102 kcal/mol (pH 5.5, Sodium acetate 20 mM).
Turning to MLKQVEIFTDGSCLGNPGPGGYGAILRYRGREKTFSAGYTRTTNNRMELMAAIVALEALKEHCEVILSTDSQYVRQGITQWIHNWKKRGWKTADKKPVKNVDLWQRLDAALGQHQIKWEWVKGHAGHPENERCLELARAAAMNPTLEDTGYQVEV [D134L], the “ddG of mutation (higher = less stable)” value was -1.15 kcal/mol (pH 3, 50 °C, glycine-HCl 10 mM) and -1.51 kcal/mol under setting [1]. The Tm by setting is: (pH 3, glycine-HCl 10 mM) 53.8 °C; (pH 5.5, Sodium acetate 20 mM) 58.6 °C. The “change of melting temperature, mutant” value by setting is: (pH 3, glycine-HCl 10 mM) 3.8 °C; (pH 5.5, Sodium acetate 20 mM) 5.5 °C. Besides, the “unfolding enthalpy (van 't Hoff)” value came to 118 kcal/mol (pH 3, glycine-HCl 10 mM) and 96.4 kcal/mol (pH 5.5, Sodium acetate 20 mM).
For the variant MLKQVEIFTDGSCLGNPGPGGYGAILRYRGREKTFSAGYTRTTNNRMELMAAIVALEALKEHCEVILSTDSQYVRQGITQWIHNWKKRGWKTADKKPVKNVDLWQRLDAALGQHQIKWEWVKGHAGHPENERCAELARAAAMNPTLEDTGYQVEV [D134A], the “ddG of mutation (higher = less stable)” value (pH 3, 50 °C, glycine-HCl 10 mM) was -0.89 kcal/mol. The “ddG of mutation (higher = less stable)” value under setting [1] was -1.51 kcal/mol. Moreover, under “pH 5.5, Sodium acetate 20 mM”, the melting temperature (Tm) is 58.6 °C; the “change of melting temperature, mutant” value came to 5.5 °C; the “unfolding enthalpy (van 't Hoff)” value stood at 118 kcal/mol.
With MLKQVEIFTDGSCLGNPGPGGYGAILRYRGREKTFSAGYTRTTNNRMELMAAIVALEALKEHCEVILSTDSQYVRQGITQWIHNWKKRGWKTADKKPVKNVDLWQRLDAALGQHQIKWEWVKGHAGHPENERCIELARAAAMNPTLEDTGYQVEV [D134I], the “ddG of mutation (higher = less stable)” value (pH 3, 50 °C, glycine-HCl 10 mM) is -0.69 kcal/mol. Besides, where the note is “pH 3, glycine-HCl 10 mM”, the Tm was found to be 52.3 °C; the “change of melting temperature, mutant” value was determined as 2.3 °C; the “unfolding enthalpy (van 't Hoff)” value amounted to 105 kcal/mol. In addition, the “ddG of mutation (higher = less stable)” value under setting [1] was -1.27 kcal/mol. Under “pH 5.5, Sodium acetate 20 mM”, the Tm was 57.7 °C; the “change of melting temperature, mutant” value is 4.6 °C; the “unfolding enthalpy (van 't Hoff)” value turned out to be 101 kcal/mol.
For the variant MLKQVEIFTDGSCLGNPGPGGYGAILRYRGREKTFSAGYTRTTNNRMELMAAIVALEALKEHCEVILSTDSQYVRQGITQWIHNWKKRGWKTADKKPVKNVDLWQRLDAALGQHQIKWEWVKGHAGHPENERCHELARAAAMNPTLEDTGYQVEV [D134H], under “pH 3, 50 °C, glycine-HCl 10 mM”, the “ddG of mutation (higher = less stable)” value was -0.53 kcal/mol. In addition, for the setting “pH 3, glycine-HCl 10 mM”, the midpoint of thermal melting (Tm) is 51.7 °C; the “change of melting temperature, mutant” value was determined as 1.7 °C; the “unfolding enthalpy (van 't Hoff)” value was found to be 106 kcal/mol. In addition, the “ddG of mutation (higher = less stable)” value under setting [1] was -1.94 kcal/mol.

As usually defined, the Tm is the temperature at the midpoint of the melting transition.
